Tested on: [H][C@@]12COP(=O)(O)O[C@@]1([H])[C@@H](O)[C@H](n1cnc3c(=O)[nH]c(N)nc31)O2
Assay: purified protein
[1] = catalytic site (Km, reduced affinity), allosteric cGMP binding unchanged

Substance	Km [1] [µM]	Km (catalytic site (Km), also allosteric site) [µM]
PDE5 (human PDE5A1, G659A) (Homo sapiens; G659A)	71.2 ± 1.2	–
PDE5 (human PDE5A1, G659P) (Homo sapiens; G659P)	131.5 ± 7.4	–
PDE5 (human PDE5A1, WT) (Homo sapiens)	–	2.91 ± 0.8
